According to the supplement of paper PMC12764529:
± gives the half width of the 95% confidence interval.

Tests used:
[1] = folding stability dG unfold from trypsin proteolysis; higher = more stable
Procedure, shortened: (§1)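 Digests were run with trypsin and chymotrypsin at 11 concentrations in threefold dilutions, plus a no-protease condition, on designed mini-proteins in a PA-tagged cDNA display construct. The mini-proteins were under 80 residues, had no cysteine, and were kept only when AlphaFold2 dimer inter-PAE was above 15. After sequencing, Bayesian fitting of the counts gave K50, from which unfolding free energy was derived against a sequence-predicted unfolded-state K50 and a shared folded-state K50, per protease or combined.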

[2] = folding stability dG unfold (combined trypsin and chymotrypsin); higher = more stable
Procedure, shortened: as §1

[3] = folding stability dG unfold from chymotrypsin proteolysis; higher = more stable
Procedure, shortened: as §1

| Sequence | folding stability dG unfold [1] | folding stability dG unfold [2] | folding stability dG unfold [3] |
| --- | --- | --- | --- |
| SAGGSAGGSAMTIEQIANELAKKLGVDIKVVVTYENGEKKEYRPDELKNIPPGPFTVEFYTDSAGGSAGGSA [r18_394_TrMRF] | 3.01 ± 0.096 kcal/mol | 3.51 ± 0.15 kcal/mol | 3.71 ± 0.1 kcal/mol |
| SAGGSAGGSAMTIEVTVPPEVPEEEAAERVARALRELFPIPEIKVSVERRPDGIIKVTVEGGSAGGSAGGSA [r18_1_TrMRF] | 0.81 ± 0.04 kcal/mol | 0.888 ± 0.1 kcal/mol | 0.902 ± 0.052 kcal/mol |
| SAGGSAGGSAMTITITGLSPEQIEEAAKALGATVTFDKETKTVTITVSPEQLEKLKELLEKSAGGSAGGSAG [r3_354_TrROS_Hall] | 3.51 ± 0.14 kcal/mol | 3.58 ± 0.18 kcal/mol | 3.58 ± 0.12 kcal/mol |
| SAGGSAGGSAMTITKTITFSSKEEAEKFVKELEEKGNITITMTYEKLPSGKYKVTVTITKPSAGGSAGGSAG [r3_273_JUSTAS] | 3.62 ± 0.21 kcal/mol | 3.68 ± 0.2 kcal/mol | 3.71 ± 0.049 kcal/mol |
| SAGGSAGGSAMTIVVKSEEEAKKLAELLNAEVVEEKDGYLTIKLEGMSEEERKKILELLKKSAGGSAGGSAG [r3_398_TrROS_Hall] | 1.96 ± 0.13 kcal/mol | 2.71 ± 0.11 kcal/mol | 3.03 ± 0.17 kcal/mol |
| SAGGSAGGSAMTLKEKAEAIEKEKGVKITVTVTYPDGTVRTLTPEELSSIPPGPYTLSFTTPSAGGSAGGSA [r18_394_JUSTAS] | 1.73 ± 0.023 kcal/mol | 1.67 ± 0.099 kcal/mol | 1.44 ± 0.16 kcal/mol |
| SAGGSAGGSAMTPPEELKEKIAAEVSPDTTVTETFPEEPLVVKITRNPSGTITVEVVSPEELSAGGSAGGSA [r18_61_JUSTAS] | -0.418 ± 0.11 kcal/mol | 0.546 ± 0.088 kcal/mol | 0.906 ± 0.049 kcal/mol |
| SAGGSAGGSAMTPVTTTQTISFPGSEEEARAEAERIREELEAKGLTVSFEFLPGGTLKITVASAGGSAGGSA [r18_262_JUSTAS] | 3.18 ± 0.064 kcal/mol | 2.74 ± 0.038 kcal/mol | 2.398 ± 0.021 kcal/mol |
| SAGGSAGGSAMTRDVTIKVPPGVTPEEVFEKLKKENPNVTSYTTTTLPDGTITVTITIEDSSAGGSAGGSAG [r3_371_JUSTAS] | 3.94 ± 0.23 kcal/mol | 4.05 ± 0.19 kcal/mol | 4.04 ± 0.12 kcal/mol |
| SAGGSAGGSAMTVPLDTLTPERLRELLAENPERVVLKSADSVLVLSRDPATGRLTVTSHELRSAGGSAGGSA [r18_75_JUSTAS] | 0.951 ± 0.011 kcal/mol | 1.22 ± 0.022 kcal/mol | 1.35 ± 0.014 kcal/mol |
| SAGGSAGGSAMVLNVPLEELLKLLGVPKEEVSYKKLEDESYELTLPDGTKVKVIVPKEILESAGGSAGGSAG [r3_477_JUSTAS] | 2.81 ± 0.098 kcal/mol | 2.91 ± 0.13 kcal/mol | 2.86 ± 0.036 kcal/mol |
| SAGGSAGGSAMYTISYDPSTGTVTVSTPSGTTTTVPVADGPVTLTVTNPDGTTTTITLEGASAGGSAGGSAG [r3_499_JUSTAS] | 2.56 ± 0.093 kcal/mol | 2.44 ± 0.068 kcal/mol | 2.42 ± 0.029 kcal/mol |
| SAGGSAGGSAMYVKVTFTYPDGSTTTVTTQLDEEEAKKLVEELAPLPVEAKLEIIPEDVPESAGGSAGGSAG [r3_35_JUSTAS] | 0.344 ± 0.073 kcal/mol | 0.655 ± 0.17 kcal/mol | 0.249 ± 0.23 kcal/mol |
| SAGGSAGGSANFKILAVEVQPAGNGIMVRAIIEFPDGWIIKFSFWFRNDGIKINIEIVPLDDSAGGSAGGSA [r18_79_TrROS] | 4.7 ± 0.15 kcal/mol | 5.68 ± 0.17 kcal/mol | 5.7 ± 0.12 kcal/mol |
| SAGGSAGGSANGWVFMIHFNIEQEPVPAEELGMPPGDPGYEDMYVIKIKSISFFWVPAGDFSAGGSAGGSAG [r3_488_TrROS] | 3.27 ± 0.09 kcal/mol | 4.38 ± 0.085 kcal/mol | 4.72 ± 0.12 kcal/mol |
| SAGGSAGGSAPATITSIEVEERTGPDGRTYRVLRVRLADTGEEVEIVVPGMSLEEVLAALASSAGGSAGGSA [r18_345_TrROS_Hall] | 2.86 ± 0.031 kcal/mol | 2.93 ± 0.082 kcal/mol | 2.937 ± 0.019 kcal/mol |
| SAGGSAGGSAPETSLTSTFEFRFEVDGELYAVRIERRVLLSADGDLRVETRIEIIPIPPDVPASAGGSAGGS [r12_927_TrMRF] | 3.72 ± 0.13 kcal/mol | 4.79 ± 0.11 kcal/mol | 5.1 ± 0.12 kcal/mol |
| SAGGSAGGSAPFNINDPNIGEVEIFPGPNAVILIKLPDGGYLVITNNGEDNVSIELVSDDESAGGSAGGSAG [r3_62_TrMRF] | 1.72 ± 0.13 kcal/mol | 1.15 ± 0.15 kcal/mol | 0.468 ± 0.16 kcal/mol |
| SAGGSAGGSAPFQIEDIEVEYHRMPPGMPYYPVRARLPGTGREVEIHMPGMPVEDVLDRIIDSAGGSAGGSA [r18_345_TrROS] | -0.446 ± 0.13 kcal/mol | -0.141 ± 0.061 kcal/mol | -0.0225 ± 0.088 kcal/mol |
| SAGGSAGGSAPKIIVVKPEDIVEAVKKADPNEKVLLFDPETGEIYEITPDKMEFIEKIPPGESAGGSAGGSA [r18_246_TrMRF] | 0.0456 ± 0.13 kcal/mol | 0.466 ± 0.22 kcal/mol | 0.884 ± 0.039 kcal/mol |
| SAGGSAGGSAPMKIDEITDVYPNPNRPKIIIKWRGPNGQPMVFDPENGKWMTPEEALDALKSAGGSAGGSAG [r3_206_TrROS] | 0.571 ± 0.059 kcal/mol | 0.935 ± 0.046 kcal/mol | 1.12 ± 0.062 kcal/mol |
| SAGGSAGGSAPNLKLKIKLDIHVFPDGWLYVSTKIEIENPGKPVEFTIMFRFPIPPNEPAPSAGGSAGGSAG [r3_383_TrROS] | 3.85 ± 0.27 kcal/mol | 5.16 ± 0.27 kcal/mol | 5.35 ± 0.15 kcal/mol |
| SAGGSAGGSAPNQTWVLRITIKFPNGKKRSFQFTFPLDDIKEEIEEEFGIDDIDIEWQPLDSAGGSAGGSAG [r3_220_TrROS] | 2.63 ± 0.061 kcal/mol | 2.84 ± 0.12 kcal/mol | 2.77 ± 0.069 kcal/mol |
| SAGGSAGGSAPPGQEFPFEPVEEESIPIYDPDNGEPPLTISVWKMRMPGGPPMTFIMISPMSAGGSAGGSAG [r3_166_TrROS] | 1.92 ± 0.034 kcal/mol | 2.17 ± 0.069 kcal/mol | 2.32 ± 0.043 kcal/mol |
| SAGGSAGGSAPPGQQLRVRIRIYNPNNGEPKREREFPGMTVDDLKEWAQKNGWRIREIEVDSAGGSAGGSAG [r3_423_TrROS] | 0.559 ± 0.1 kcal/mol | 1.3 ± 0.095 kcal/mol | 1.49 ± 0.2 kcal/mol |
| SAGGSAGGSAPPLKIVIRIEFPDPNGKKQEYEIPADYPLEQVKDNAEEPFPGAKIENIEVVSAGGSAGGSAG [r3_60_TrROS] | 1.02 ± 0.057 kcal/mol | 1.21 ± 0.049 kcal/mol | 1.33 ± 0.071 kcal/mol |
| SAGGSAGGSAPPNVEIKLTMEPYKPPDGNKYYRIPIEVNKKPWQAKEIADWLQPEGFRIEPSAGGSAGGSAG [r3_157_TrROS] | 0.238 ± 0.18 kcal/mol | 0.151 ± 0.23 kcal/mol | 0.152 ± 0.41 kcal/mol |
